# In publication PMC10648788, “Ahf-Caltide, a Novel Polypeptide Derived from Calpastatin, Protects against Oxidative Stress Injury by Stabilizing the Expression of CaV1.2 Calcium Channel” (International Journal of Molecular Sciences, 2023):
# B1: Calpastatin (CAST) domain L (domain or fragment, UniProt P20810 3-148, looked up)
# chain: PTETKAIPVSQQMEGPHLPNKKKHKKQAVKTEPEKKSQSTKLSVVHEKKSQEGKPKEHTEPKSLPKQASDTGSNDAHNKKAVSRSAEQQPSEKSTEPKTKPQDMISAGGESVAGITAISGKPGDKKKEKKSLTPAVPVESKPDKPS
# notes: calpastatin (CAST) domain L (CSL), a.a; In the H2O2 experiments CSL was incubated with H2O2 present; The chemical change is not defined; also called CSL; source: E. coli BL21, purified (Glutathione Sepharose 4B), GST removed using PreScission protease
# B2: GST-NT, N terminus of the CaV1.2 channel alpha1 subunit (domain or fragment, UniProt O35505 6-140, looked up)
# chain: QPTTPAYRPLPSHLSADTEVRGRGTLVHEAQLNCFYISPGGSNYGSPRPAHANINANAAAGLAPEHIPTPGAALSWQAAIDAGRQAKLMGSAGNTTISTVSSTQRKRQQYGKPKKQSGTTATRPPRALLCLTLKN
# notes: CaV1.2 calcium channel alpha1 subunit, N terminus (NT), a.a; 6-140, GenBank AB016287; source: E. coli BL21, purified (Glutathione Sepharose 4B)
# Key:
# Conditions in all cases: both partners purified
# [1] = target: B2; assay: pull-down; GST fusion (15 ug) with 10 uM CSL in 400 uL Tris buffer, 4 C, 4 h; [Ca2+] 10 uM, H2O2 0 M; Coomassie-stained gel quantified
# [2] = target: T1, GST-CT1, proximal portion of the C terminus of the CaV1.2 channel alpha1 subunit (UniProt O35505 1509-1789); assay: as above
# T1 construct: CaV1.2 calcium channel alpha1 subunit, CT1 (proximal portion of CT), a.a; 1509-1789, GenBank AB016287; source: E. coli BL21, purified (Glutathione Sepharose 4B)
# T1 sequence (O35505 1509-1789): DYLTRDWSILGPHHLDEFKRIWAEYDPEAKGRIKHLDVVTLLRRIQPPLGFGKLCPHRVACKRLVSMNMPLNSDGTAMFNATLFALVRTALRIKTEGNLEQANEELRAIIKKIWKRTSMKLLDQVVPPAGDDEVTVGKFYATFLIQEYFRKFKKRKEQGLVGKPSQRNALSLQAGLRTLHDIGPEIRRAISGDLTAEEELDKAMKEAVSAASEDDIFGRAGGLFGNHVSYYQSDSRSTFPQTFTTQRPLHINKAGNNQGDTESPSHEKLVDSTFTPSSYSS
# [3] = target: T2, GST-PreIQ, PreIQ motif of the CaV1.2 channel alpha1 subunit (UniProt O35505 1599-1639); assay: as above
# T2 construct: CaV1.2 calcium channel alpha1 subunit, PreIQ motif, a.a; 1599-1639, GenBank AB016287; source: E. coli BL21, purified (Glutathione Sepharose 4B)
# T2 sequence (O35505 1599-1639): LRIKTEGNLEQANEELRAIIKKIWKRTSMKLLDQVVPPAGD
# [4] = target: T3, GST-IQ, IQ motif of the CaV1.2 channel alpha1 subunit (UniProt O35505 1648-1668); assay: as above
# T3 construct: CaV1.2 calcium channel alpha1 subunit, IQ motif, a.a; 1648-1668, GenBank AB016287; also called IQ domain; source: E. coli BL21, purified (Glutathione Sepharose 4B)
# T3 chain (looked up): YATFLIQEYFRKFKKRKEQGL
# [5] = target: B2; assay: pull-down; GST fusion (15 ug) with 10 uM CSL in 400 uL Tris buffer, 4 C, 4 h; [Ca2+] 10 uM, H2O2 10^-1 M; Coomassie-stained gel quantified
# [6] = target: T1, GST-CT1, proximal portion of the C …; assay: as above
# [7] = target: T2, GST-PreIQ, PreIQ motif of the CaV1.2 …; assay: as above
# [8] = target: T3, GST-IQ, IQ motif of the CaV1.2 channel …; assay: as above
# [9] = target: B2; assay: pull-down; GST fusion (15 ug) with 10 uM CSL in 400 uL Tris buffer, 4 C, 4 h; [Ca2+] 10 uM, H2O2 10^-2 M; Coomassie-stained gel quantified
# [10] = target: T1, GST-CT1, proximal portion of the C …; assay: as above
# [11] = target: T2, GST-PreIQ, PreIQ motif of the CaV1.2 …; assay: as above
# [12] = target: T3, GST-IQ, IQ motif of the CaV1.2 channel …; assay: as above
# [13] = target: B1; assay: pull-down; GST-NT (15 ug) incubated with CSL 0-30 uM for 4 h in 400 uL Tris buffer, [Ca2+] 1 mM; Coomassie-stained gel quantified; one-site fit, apparent Kd
# [14] = target: B1; assay: pull-down; GST-NT (15 ug) incubated with CSL 0-30 uM for 4 h in 400 uL Tris buffer, [Ca2+] 10 uM; Coomassie-stained gel quantified; one-site fit, apparent Kd
# [15] = target: B1; assay: pull-down; GST-NT (15 ug) incubated with CSL 0-30 uM for 4 h in 400 uL Tris buffer, [Ca2+] 25 nM; Coomassie-stained gel quantified; one-site fit, apparent Kd
Binder,binding density of CSL [1],binding density of CSL [2],binding density of CSL [3],binding density of CSL [4],binding density of CSL [5],binding density of CSL [6],binding density of CSL [7],binding density of CSL [8],binding density of CSL [9],binding density of CSL [10],binding density of CSL [11],binding density of CSL [12],Kd [13] [µM],Kd [14] [µM],Kd [15] [µM]
B1,0.46,0.52,0.16,0.15,0.46,0.68,0.16,0.26,0.46,1.12,0.16,0.34,–,–,–
B2,–,–,–,–,–,–,–,–,–,–,–,–,1.32,1.48,1.11
